Results: the supplement of paper PMC9112550, “Optimization of the antimicrobial peptide Bac7 by deep mutational scanning” (BMC Biology, 2022)

Tested on: Escherichia coli TOP10
Experiment: shrunken log2 fold change of peptide-encoding DNA abundance (4.5 h post-induction vs induction); higher = less antimicrobial activity (less host growth inhibition)
Conditions: time post-induction: 4.5 h; library: site-saturation at positions 5, 18, 19, 20
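Further: peptides expressed intracellularly from a pBAD plasmid library in pooled LB shake-flask culture, induced with 0.3% L-arabinose, DNA abundance read by NGS, three biological replicates, DESeq2 with apeglm shrinkage.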

Sequence	shrunken log2 fold change
RRIRTRPPRLPRPRPRPHIVPRP	-0.102
RRIRTRPPRLPRPRPRPHKTPRP	-0.035
RRIRTRPPRLPRPRPRPHLCPRP	-0.17
RRIRTRPPRLPRPRPRPHMIPRP	-0.138
RRIRTRPPRLPRPRPRPHPVPRP	0.1
RRIRTRPPRLPRPRPRPHRNPRP	-0.677
RRIRTRPPRLPRPRPRPHRTPRP	-0.615
RRIRTRPPRLPRPRPRPHSAPRP	0.205
RRIRTRPPRLPRPRPRPHSFPRP	-0.0168
RRIRTRPPRLPRPRPRPHSGPRP	-0.166
RRIRTRPPRLPRPRPRPHSNPRP	-0.489
RRIRTRPPRLPRPRPRPHSWPRP	-0.0571
RRIRTRPPRLPRPRPRPHTVPRP	-0.244
RRIRTRPPRLPRPRPRPHWNPRP	-0.424
RRIRTRPPRLPRPRPRPHWWPRP	0.203
RRIRTRPPRLPRPRPRPICHPRP	0.055
RRIRTRPPRLPRPRPRPICQPRP	-0.0148
RRIRTRPPRLPRPRPRPIDGPRP	0.0685
RRIRTRPPRLPRPRPRPIEFPRP	0.0274
RRIRTRPPRLPRPRPRPIFAPRP	0.408
RRIRTRPPRLPRPRPRPIGHPRP	-0.111
RRIRTRPPRLPRPRPRPIGPPRP	0.0411
RRIRTRPPRLPRPRPRPIHCPRP	-0.172
RRIRTRPPRLPRPRPRPIHPPRP	-0.389
RRIRTRPPRLPRPRPRPIKAPRP	-0.143

Sequence	shrunken log2 fold change
RRIRTRPPRLPRPRPRPIKIPRP	-0.426
RRIRTRPPRLPRPRPRPIKQPRP	-0.0342
RRIRTRPPRLPRPRPRPILDPRP	0.0371
RRIRTRPPRLPRPRPRPILTPRP	-0.139
RRIRTRPPRLPRPRPRPINPPRP	-0.0274
RRIRTRPPRLPRPRPRPINSPRP	-0.875
RRIRTRPPRLPRPRPRPIPFPRP	-0.325
RRIRTRPPRLPRPRPRPIQDPRP	-0.867
RRIRTRPPRLPRPRPRPIQGPRP	-0.0537
RRIRTRPPRLPRPRPRPIQQPRP	-0.229
RRIRTRPPRLPRPRPRPIRVPRP	-0.519
RRIRTRPPRLPRPRPRPIRYPRP	-0.0148
RRIRTRPPRLPRPRPRPISIPRP	-0.477
RRIRTRPPRLPRPRPRPITDPRP	0.177
RRIRTRPPRLPRPRPRPITIPRP	-0.151
RRIRTRPPRLPRPRPRPIVQPRP	0.0444
RRIRTRPPRLPRPRPRPIYMPRP	-0.442
RRIRTRPPRLPRPRPRPIYWPRP	-0.157
RRIRTRPPRLPRPRPRPKAGPRP	0.768
RRIRTRPPRLPRPRPRPKARPRP	0.0672
RRIRTRPPRLPRPRPRPKCKPRP	0.0156
RRIRTRPPRLPRPRPRPKFDPRP	-0.0528
RRIRTRPPRLPRPRPRPKGFPRP	0.0975
RRIRTRPPRLPRPRPRPKIDPRP	-0.0576
RRIRTRPPRLPRPRPRPKITPRP	-0.464

Sequence	shrunken log2 fold change
RRIRTRPPRLPRPRPRPKIVPRP	-0.0543
RRIRTRPPRLPRPRPRPKKVPRP	-0.282
RRIRTRPPRLPRPRPRPKKWPRP	-0.0616
RRIRTRPPRLPRPRPRPKLIPRP	-0.0765
RRIRTRPPRLPRPRPRPKLRPRP	-0.0516
RRIRTRPPRLPRPRPRPKMFPRP	-0.0043
RRIRTRPPRLPRPRPRPKMIPRP	0.013
RRIRTRPPRLPRPRPRPKMWPRP	0.307
RRIRTRPPRLPRPRPRPKNLPRP	-0.143
RRIRTRPPRLPRPRPRPKPPPRP	0.353
RRIRTRPPRLPRPRPRPKQMPRP	0.0252
RRIRTRPPRLPRPRPRPKQWPRP	0.158
RRIRTRPPRLPRPRPRPKRDPRP	0.187
RRIRTRPPRLPRPRPRPKREPRP	0.319
RRIRTRPPRLPRPRPRPKSQPRP	-0.285
RRIRTRPPRLPRPRPRPKWLPRP	0.247
RRIRTRPPRLPRPRPRPKYWPRP	-0.254
RRIRTRPPRLPRPRPRPLAPPRP	0.263
RRIRTRPPRLPRPRPRPLDFPRP	-0.19
RRIRTRPPRLPRPRPRPLEMPRP	0.0834
RRIRTRPPRLPRPRPRPLGYPRP	-0.213
RRIRTRPPRLPRPRPRPLHGPRP	0.184
RRIRTRPPRLPRPRPRPLHLPRP	0.053
RRIRTRPPRLPRPRPRPLIRPRP	-0.133
RRIRTRPPRLPRPRPRPLISPRP	-0.145

Sequence	shrunken log2 fold change
RRIRTRPPRLPRPRPRPLKEPRP	0.825
RRIRTRPPRLPRPRPRPLLMPRP	-0.278
RRIRTRPPRLPRPRPRPLNHPRP	-0.204
RRIRTRPPRLPRPRPRPLNPPRP	-0.19
RRIRTRPPRLPRPRPRPLPDPRP	-0.0997
RRIRTRPPRLPRPRPRPLQCPRP	0.174
RRIRTRPPRLPRPRPRPLRHPRP	0.252
RRIRTRPPRLPRPRPRPLTFPRP	-0.203
RRIRTRPPRLPRPRPRPLTNPRP	-0.0099
RRIRTRPPRLPRPRPRPLTPPRP	-0.0473
RRIRTRPPRLPRPRPRPLWFPRP	-0.489
RRIRTRPPRLPRPRPRPLWQPRP	0.0687
RRIRTRPPRLPRPRPRPMATPRP	0.0309
RRIRTRPPRLPRPRPRPMCFPRP	0.0222
RRIRTRPPRLPRPRPRPMCMPRP	-0.0542
RRIRTRPPRLPRPRPRPMDAPRP	0.0575
RRIRTRPPRLPRPRPRPMEFPRP	-0.0956
RRIRTRPPRLPRPRPRPMEMPRP	-0.236
RRIRTRPPRLPRPRPRPMFIPRP	-0.305
RRIRTRPPRLPRPRPRPMFQPRP	-0.446
RRIRTRPPRLPRPRPRPMGGPRP	-0.0576
RRIRTRPPRLPRPRPRPMGHPRP	-0.118
RRIRTRPPRLPRPRPRPMGWPRP	0.293
RRIRTRPPRLPRPRPRPMGYPRP	0.0627
RRIRTRPPRLPRPRPRPMHWPRP	0.209

Sequence	shrunken log2 fold change
RRIRTRPPRLPRPRPRPMIFPRP	-0.738
RRIRTRPPRLPRPRPRPMLLPRP	-0.0757
RRIRTRPPRLPRPRPRPMMAPRP	0.0689
RRIRTRPPRLPRPRPRPMMCPRP	-0.59
RRIRTRPPRLPRPRPRPMMRPRP	0.933
RRIRTRPPRLPRPRPRPMPGPRP	0.106
RRIRTRPPRLPRPRPRPMPRPRP	0.175
RRIRTRPPRLPRPRPRPMPWPRP	0.253
RRIRTRPPRLPRPRPRPMQPPRP	0.0715
RRIRTRPPRLPRPRPRPMRIPRP	-0.0254
RRIRTRPPRLPRPRPRPMRSPRP	0.232
RRIRTRPPRLPRPRPRPMRYPRP	-0.0953
RRIRTRPPRLPRPRPRPMSFPRP	-0.0183
RRIRTRPPRLPRPRPRPMVVPRP	0.0636
RRIRTRPPRLPRPRPRPMYAPRP	-0.121
RRIRTRPPRLPRPRPRPMYGPRP	-0.000687
RRIRTRPPRLPRPRPRPMYQPRP	-0.416
RRIRTRPPRLPRPRPRPNAKPRP	-0.0531
RRIRTRPPRLPRPRPRPNEHPRP	-0.198
RRIRTRPPRLPRPRPRPNEPPRP	-0.102
RRIRTRPPRLPRPRPRPNIWPRP	0.682
RRIRTRPPRLPRPRPRPNKMPRP	0.0425
RRIRTRPPRLPRPRPRPNMRPRP	0.33
RRIRTRPPRLPRPRPRPNPGPRP	-0.0312
RRIRTRPPRLPRPRPRPNQFPRP	-0.205

Sequence	shrunken log2 fold change
RRIRTRPPRLPRPRPRPNRIPRP	-0.294
RRIRTRPPRLPRPRPRPNRRPRP	0.0696
RRIRTRPPRLPRPRPRPNRYPRP	-0.19
RRIRTRPPRLPRPRPRPNWRPRP	0.176
RRIRTRPPRLPRPRPRPNYEPRP	-0.682
RRIRTRPPRLPRPRPRPNYLPRP	-0.66
RRIRTRPPRLPRPRPRPNYPPRP	-0.0192
RRIRTRPPRLPRPRPRPNYSPRP	-0.382
RRIRTRPPRLPRPRPRPPCFPRP	0.153
RRIRTRPPRLPRPRPRPPDPPRP	0.197
RRIRTRPPRLPRPRPRPPDSPRP	-0.0615
RRIRTRPPRLPRPRPRPPESPRP	-0.0298
RRIRTRPPRLPRPRPRPPFFPRP	0.253
RRIRTRPPRLPRPRPRPPFIPRP	-0.177
RRIRTRPPRLPRPRPRPPGGPRP	0.637
RRIRTRPPRLPRPRPRPPGHPRP	0.245
RRIRTRPPRLPRPRPRPPHAPRP	0.312
RRIRTRPPRLPRPRPRPPHGPRP	-0.228
RRIRTRPPRLPRPRPRPPHYPRP	0.0354
RRIRTRPPRLPRPRPRPPIWPRP	0.477
RRIRTRPPRLPRPRPRPPKNPRP	-0.0268
RRIRTRPPRLPRPRPRPPLKPRP	-0.0323
RRIRTRPPRLPRPRPRPPNQPRP	0.185
RRIRTRPPRLPRPRPRPPQVPRP	-0.0388
RRIRTRPPRLPRPRPRPPRMPRP	0.165
